Test results as given in the Immune Epitope Database (IEDB).

What was measured:
HLA-A*02:12 [1] = assay: IEDB peptide-MHC binding, purified MHC/direct/fluorescence; filed as Kd, often an IC50 or EC50 that approximates it; ≥ and ≤ were set here for values at or beyond the usual limits of such assays
HLA-B*57:01 [2] = assay: as above
HLA-A*02:01 [3] = assay: as above
HLA-B*15:01 [4] = assay: as above
HLA-B*27:03 [5] = assay: as above
HLA-A*03:01 [6] = assay: as above
HLA-A*24:03 [7] = assay: as above; conditions: source organism: Brucella suis 1330
HLA-A*02:19 [8] = assay: as above
HLA-B*15:17 [9] = assay: as above; conditions: source organism: Brucella suis 1330
HLA-A*02:03 [10] = assay: as above
HLA-A*23:01 [11] = assay: as above; conditions: source organism: Brucella suis 1330
HLA-B*46:01 [12] = assay: as above
HLA-A*26:01 [13] = assay: as above
HLA-A*29:02 [14] = assay: as above; conditions: source organism: Brucella suis 1330
HLA-A*69:01 [15] = assay: as above; conditions: source organism: Brucella suis 1330
HLA-B*18:01 [16] = assay: as above
HLA-B*51:01 [17] = assay: as above
HLA-A*02:16 [18] = assay: as above
HLA-A*68:02 [19] = assay: as above
HLA-B*48:01 = assay: IEDB peptide-MHC binding, purified MHC/competitive/fluorescence; filed as Kd, often an IC50 or EC50 that approximates it; ≥ and ≤ were set here for values at or beyond the usual limits of such assays
HLA-A*02:11 = assay: as above
HLA-A*02:12 [20] = assay: as above
HLA-A*02:01 [21] = assay: as above
HLA-B*27:03 [22] = assay: as above
HLA-A*03:01 [23] = assay: as above
HLA-A*24:03 [24] = assay: as above
HLA-A*02:19 [25] = assay: as above
HLA-A*02:03 [26] = assay: as above
HLA-A*23:01 [27] = assay: as above; conditions: source organism: Vibrio vulnificus YJ016
HLA-B*46:01 [28] = assay: as above
HLA-A*29:02 [29] = assay: as above
HLA-A*69:01 [30] = assay: as above
HLA-B*18:01 [31] = assay: as above
HLA-B*39:01 = assay: as above
HLA-A*02:16 [32] = assay: as above
HLA-B*57:01 [33] = assay: as above; conditions: source organism: Yersinia mollaretii ATCC 43969
HLA-B*15:01 [34] = assay: as above; conditions: source organism: Yersinia mollaretii ATCC 43969
HLA-B*15:17 [35] = assay: as above; conditions: source organism: Yersinia mollaretii ATCC 43969
HLA-A*26:01 [36] = assay: as above; conditions: source organism: Yersinia mollaretii ATCC 43969
HLA-B*51:01 [37] = assay: as above; conditions: source organism: Yersinia mollaretii ATCC 43969
HLA-A*68:02 [38] = assay: as above; conditions: source organism: Yersinia mollaretii ATCC 43969
HLA-C*03:03 = assay: IEDB peptide-MHC binding, purified MHC/direct/fluorescence; filed as Kd, often an IC50 or EC50 that approximates it; ≥ and ≤ were set here for values at or beyond the usual limits of such assays; conditions: source organism: Mycobacterium tuberculosis variant bovis BCG str. Pasteur 1173P2
HLA-C*05:01 = assay: as above; conditions: source organism: Mycobacterium tuberculosis variant bovis BCG str. Pasteur 1173P2
HLA-A*02:06 = assay: IEDB peptide-MHC binding, purified MHC/competitive/fluorescence; filed as Kd, often an IC50 or EC50 that approximates it; ≥ and ≤ were set here for values at or beyond the usual limits of such assays
[39] = source organism: Brucella suis 1330
[40] = source organism: Vibrio vulnificus YJ016
[41] = source organism: Vibrio cholerae V52
[42] = source organism: Yersinia mollaretii ATCC 43969
[43] = source organism: Mycobacterium tuberculosis variant bovis BCG str. Pasteur 1173P2
[44] = source organism: Human immunodeficiency virus 1

Measured: Kd

MHCDFAFWV
≥ 20 µM: HLA-A*02:12 [1]; [39] | HLA-B*57:01 [2]; [39] | HLA-A*02:01 [3]; [39] | HLA-B*15:01 [4]; [39] | HLA-B*27:03 [5]; [39] | HLA-A*03:01 [6]; [39] | HLA-A*24:03 [7] | HLA-A*02:19 [8]; [39] | HLA-B*15:17 [9] | HLA-A*02:03 [10]; [39] | HLA-A*23:01 [11] | HLA-B*46:01 [12]; [39] | HLA-A*26:01 [13]; [39] | HLA-A*29:02 [14] | HLA-A*69:01 [15] | HLA-B*18:01 [16]; [39] | HLA-B*51:01 [17]; [39] | HLA-A*02:16 [18]; [39] | HLA-A*68:02 [19]; [39]

RRLRTLVLA
≥ 20 µM: HLA-B*48:01; source organism: Tick-borne encephalitis virus

HTSALSLGY
≥ 20 µM: HLA-A*02:11; [40] | HLA-A*02:12 [20]; [40] | HLA-A*02:01 [21]; [40] | HLA-B*27:03 [22]; [40] | HLA-A*24:03 [24]; [40] | HLA-A*02:19 [25]; [40] | HLA-A*02:03 [26]; [40] | HLA-A*23:01 [27] | HLA-B*46:01 [28]; [40] | HLA-A*69:01 [30]; [40] | HLA-B*18:01 [31]; [40] | HLA-B*39:01; [40] | HLA-A*02:16 [32]; [40]
≤ 0.0001 µM: HLA-A*29:02 [29]; [40]
0.0179 µM: HLA-A*03:01 [23]; [40]

LPYPVLLKI
≥ 20 µM: HLA-A*02:12 [1]; [41] | HLA-B*57:01 [2]; [41] | HLA-A*02:01 [3]; [41] | HLA-B*15:01 [4]; [41] | HLA-B*27:03 [5]; [41] | HLA-A*03:01 [6]; [41] | HLA-A*02:19 [8]; [41] | HLA-A*02:03 [10]; [41] | HLA-B*46:01 [12]; [41] | HLA-A*26:01 [13]; [41] | HLA-B*18:01 [16]; [41] | HLA-A*02:16 [18]; [41] | HLA-A*68:02 [19]; [41]
0.054 µM: HLA-B*51:01 [17]; [41]

DEQEFFYSQ
≥ 20 µM: HLA-A*02:11; [42] | HLA-A*02:12 [20]; [42] | HLA-B*57:01 [33] | HLA-A*02:01 [21]; [42] | HLA-B*15:01 [34] | HLA-B*27:03 [22]; [42] | HLA-A*03:01 [23]; [42] | HLA-A*24:03 [24]; [42] | HLA-A*02:19 [25]; [42] | HLA-B*15:17 [35] | HLA-A*02:03 [26]; [42] | HLA-B*46:01 [28]; [42] | HLA-A*26:01 [36] | HLA-A*29:02 [29]; [42] | HLA-A*69:01 [30]; [42] | HLA-B*39:01; [42] | HLA-B*51:01 [37] | HLA-A*02:16 [32]; [42] | HLA-A*68:02 [38]
0.0003 µM: HLA-B*18:01 [31]; [42]

YLAEGHACL
0.0026 µM: HLA-A*02:12 [20]; [43]
0.378 µM: HLA-A*69:01 [30]; [43]
0.0033 µM: HLA-A*02:19 [25]; [43]
0.151 µM: HLA-C*05:01
≤ 0.001 µM: HLA-A*02:11; [43] | HLA-A*02:03 [26]; [43] | HLA-A*02:06; [43] | HLA-A*02:16 [32]; [43]
0.002 µM: HLA-C*03:03

FLGKIWSS
0.00138 µM: HLA-A*02:03 [26]; [44]
0.0075 µM: HLA-A*02:01 [21]; [44]
≤ 0.0001 µM: HLA-A*02:11; [44] | HLA-A*02:06; [44] | HLA-A*02:16 [32]; [44]
0.0005 µM: HLA-A*02:12 [20]; [44]
≥ 5 µM: HLA-A*69:01 [30]; [44]
0.00233 µM: HLA-A*02:19 [25]; [44]

KRAAAGIMK
≥ 20 µM: HLA-B*48:01; source organism: Dengue virus 2 Thailand/NGS-C/1944
